B1: GAD-Sml1 two-hybrid fusion (plasmid pWJ684, pACTII) (other, not shown: large carriers)
chain: MQNSQDYFYAQNRCQQQQAPSTLRTVTMAEFRRVPLPPMAEVPMLSTQNSMGSSASASASSLEMWEKDLEERLNSIDHDMNNNKFGSGELKSMFNQGKVEEMDF
B3: GBD-Rnr2 two-hybrid fusion (plasmid pWJ729) (other, UniProt P04386 1-147, looked up)
chain: MKLLSSIEQACDICRLKKLKCSKEKPKCAKCLKNNWECRYSPKTKRSPLTRAHLTEVESRLERLEQLFLLIFPREDLDMILKMDSLQDIKALLTGLFVQDNVNKDAVTDRLASVETDMPLTLRQHRISATSSSEESSNKGQRQLTVSMPKETPSKAAADALSDLEIKDSKSNLNKELETLREENRVKSDMLKEKLSKDAENHKAYLKSHQVHRHKLKEMEKEEPLLNEDKERTVLFPIKYHEIWQAYKRAEASFWTAEEIDLSKDIHDWNNRMNENERFFISRVLAFFAASDGIVNENLVENFSTEVQIPEAKSFYGFQIMIENIHSETYSLLIDTYIKDPKESEFLFNAIHTIPEIGEKAEWALRWIQDADALFGERLVAFASIEGVFFSGSFASIFWLKKRGMMPGLTFSNELICRDEGLHTDFACLLFAHLKNKPDPAIVEKIVTEAVEIEQRYFLDALPVALLGMNADLMNQYVEFVADRLLVAFGNKKYYKVENPFDFMENISLAGKTNFFEKRVSDYQKAGVMSKSTKQEAGAFTFNEDF

Columns and labels:
[1] = biological target: B3; assay: yeast two-hybrid, GAD-Sml1 with GBD-Rnr2
Description: (§1) We next tested the possibility that Sml1 interacts with the subunit(s) of RNR since such interactions may provide a regulatory mechanism to inhibit RNR activity. […] In addition, Rnr1 and Rnr2 each interacts with itself, however these interactions are much weaker than the interaction between Sml1 and Rnr1 (Table 2).
(§2) The strains and plasmids for two-hybrid analysis were PJ69-4A, pGBD-C2, pGAD-C2 (James et al., 1996) and pACTII (CLONTECH® Inc.). The primer pair pB-SML1 5' (SEQ ID NO: 11) and pGBD-SML1 3' (SEQ ID NO: 13) (Table 4) was used to amplify the SML1 ORF. After digestion with BamHI and PstI, this PCR product was cloned into the BamHI-PstI sites of pGBD-C2 to construct plasmid pWJ728. Similarly, plasmid pWJ684 contains a BamHI fragment from the PCR product of the SML1 ORF generated using the primer pair pB-SML1 5' and pB-SML1 3' (SEQ ID NO: 12) (Table 4) and inserted at the BamHI site of pACTII. PCR fragments containing the RNR1 or the RNR2 ORF were generated by primer pairs RNR1-ORF 5' (SEQ ID NO: 14) and RNR1 3' (SEQ ID NO: 15) or RNR2-ORF 5' (SEQ ID NO: 17) and RNR2 3' (SEQ ID NO: 16) (Table 4). These fragments were cloned into the BamHI-PstI site of pGBD-C2 and pGAD-C2 to construct pWJ731 and pWJ745 or pWJ729 and pWJ746 respectively.
(§3) The GAL1-HIS3 reporter was assayed on SC-HIS-LEU-TRP medium plus 1-2 mM 3-aminotriazole. […]

[2] = biological target: T1, GAD-Rnr1 two-hybrid fusion (plasmid pWJ745) (yeast (Saccharomyces cerevisiae), UniProt P21524 1-888); assay: cell-based or functional assay
T1 sequence (looked up): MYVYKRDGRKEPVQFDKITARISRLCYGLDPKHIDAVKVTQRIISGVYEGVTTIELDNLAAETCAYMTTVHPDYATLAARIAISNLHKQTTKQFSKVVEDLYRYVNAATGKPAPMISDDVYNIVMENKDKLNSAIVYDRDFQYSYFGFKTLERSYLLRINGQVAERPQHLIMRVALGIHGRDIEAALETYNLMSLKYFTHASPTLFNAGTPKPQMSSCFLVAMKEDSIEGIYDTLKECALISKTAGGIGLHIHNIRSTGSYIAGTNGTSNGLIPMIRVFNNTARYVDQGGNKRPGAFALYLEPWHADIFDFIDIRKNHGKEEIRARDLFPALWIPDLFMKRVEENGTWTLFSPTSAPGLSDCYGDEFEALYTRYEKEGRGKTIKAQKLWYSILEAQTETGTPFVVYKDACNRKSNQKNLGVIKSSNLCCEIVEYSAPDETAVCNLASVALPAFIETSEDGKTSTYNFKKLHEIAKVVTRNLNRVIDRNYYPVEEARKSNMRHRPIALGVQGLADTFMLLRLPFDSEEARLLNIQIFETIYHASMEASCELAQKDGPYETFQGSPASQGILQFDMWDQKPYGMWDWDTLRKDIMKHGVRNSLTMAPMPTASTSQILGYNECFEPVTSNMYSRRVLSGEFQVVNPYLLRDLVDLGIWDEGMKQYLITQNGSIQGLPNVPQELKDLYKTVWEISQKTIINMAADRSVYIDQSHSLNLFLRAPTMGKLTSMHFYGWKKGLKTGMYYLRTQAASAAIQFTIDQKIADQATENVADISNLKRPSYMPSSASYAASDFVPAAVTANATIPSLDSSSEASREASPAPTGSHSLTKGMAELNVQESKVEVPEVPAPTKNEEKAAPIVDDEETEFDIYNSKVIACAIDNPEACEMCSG

[3] = biological target: B1; assay: cell-based or functional assay
[4] = biological target: T2, GAD (Gal4 activation domain alone, empty vector control) (UniProt P04386 768-881); assay: cell-based or functional assay
T2 sequence (looked up): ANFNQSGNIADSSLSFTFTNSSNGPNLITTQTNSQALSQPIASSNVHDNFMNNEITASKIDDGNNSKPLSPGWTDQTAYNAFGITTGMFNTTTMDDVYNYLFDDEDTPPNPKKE

[5] = biological target: T3, GAD-Rnr2 two-hybrid fusion (plasmid pWJ746) (yeast (Saccharomyces cerevisiae), UniProt P09938 1-399); assay: yeast two-hybrid, GBD-Sml1 with GAD-Rnr2
T3 construct: Whole RNR2 ORF as cloned
T3 sequence (looked up): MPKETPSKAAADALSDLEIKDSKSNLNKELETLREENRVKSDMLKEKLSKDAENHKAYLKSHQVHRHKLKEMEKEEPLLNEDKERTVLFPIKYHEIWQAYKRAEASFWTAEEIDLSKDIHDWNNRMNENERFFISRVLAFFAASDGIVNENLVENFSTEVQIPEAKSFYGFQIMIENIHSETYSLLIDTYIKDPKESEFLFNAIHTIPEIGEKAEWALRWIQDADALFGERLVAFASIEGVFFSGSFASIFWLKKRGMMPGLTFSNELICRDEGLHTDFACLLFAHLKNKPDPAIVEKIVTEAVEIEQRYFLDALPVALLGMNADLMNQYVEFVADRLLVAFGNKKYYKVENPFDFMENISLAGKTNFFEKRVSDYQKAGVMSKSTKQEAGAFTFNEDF
Description: as §1, §2, §3

[6] = biological target: T3, GAD-Rnr2 two-hybrid fusion (plasmid …); assay: cell-based or functional assay

B1: no binding [1].

B2: GBD-Sml1 two-hybrid fusion (plasmid pWJ728) (other)
chain: MKLLSSIEQACDICRLKKLKCSKEKPKCAKCLKNNWECRYSPKTKRSPLTRAHLTEVESRLERLEQLFLLIFPREDLDMILKMDSLQDIKALLTGLFVQDNVNKDAVTDRLASVETDMPLTLRQHRISATSSSEESSNKGQRQLTVSMQNSQDYFYAQNRCQQQQAPSTLRTVTMAEFRRVPLPPMAEVPMLSTQNSMGSSASASASSLEMWEKDLEERLNSIDHDMNNNKFGSGELKSMFNQGKVEEMDF
notes: also called GBD fusion SML1
In the case of B2, the “two-hybrid LacZ activity” value [2] is reported as 31 Miller Units, the “two-hybrid LacZ activity” value [3] is reported as 3.3 Miller Units and the “two-hybrid LacZ activity” value [4] is reported as 4 Miller Units. B2: no binding [5].

With B3 the “two-hybrid LacZ activity” value [6] was 2.3 Miller Units, the “two-hybrid LacZ activity” value [3] was 0.9 Miller Units and the “two-hybrid LacZ activity” value [4] was 1.4 Miller Units.
